Assay results published in a protein production outcome set (Wang et al. 2014).

Assay: label from the status in PepcDB records

| Sequence | protein production |
| --- | --- |
| MANTYGGVIFLGIEEKPKGRFSVTGIAVPERVLKALWDGLNNRQRISINLLTDKMVEVIEIQGKQVIRIQVPRARRAQRPVYVGQNPLTGTYRRNYEGDYLCDEETIKRMLAEQVEEVRDARLLENYGFDDIEPNTLKAYRNQYDLTKALSALVRDGFLESGGIARGTFYFFPGEPPNAEADLVAQNYKFVEKSSPEDLLLGIIPKEIFDDLKPSSDDLKPSSDDLEPSSDDLEPSSDDWQSLMAIAVTIRNKGKVSTDIMEATILRLCQGRFLNHKQLQELLDRSYNTLRLGYLSKMHKKGQLELRYPDKLTHPNQGYRTKNSSSSDF | failed |
| MCYHLIIDSFIDRISRMHTQRGLEVTTGSIEAVDSINYFHEQVLSSGQNAIQILDSAKKHTDNLLIQTYAAAFYLYAQEDVANEQASDYLQSAFRLLTSANEREKLIFEAVTNWSKRDYANAISLLVTLLERYPRDTLALKFMEWLFYCTGQAFNAEYFLKVCDKCAPENQDESHFLAIHSFALELCGQYSKAKEMAEEAITMNLLTPWAHHTLAHVHLLTSDITGGINRLRDLQKTWEDILPLLKGHNTWHLALFYLANRNEEEVKKLYPHISGALPDTVLEQLDTISLLWRMDMAGLPQDRLLNQVVDHLSTHPLEYYTGFTNAHFIYCLVKSGYKNEADESLKRMKFYACSPSSDALWGDVVLPLCQGIYAFADADYKTALMLMEPVIGECAQLGGSDAQIELFFQTYLLVLIHNKQKDKALQFFTEHLKYYNNTPLSDWWFQSANKA | failed |
| MKRLADVKISTLDLVPVRHDKGPAESLRNSLSLAQHVEKLGYNRFWVAEHHNMDGIASSATSVLLAYLAGGTSTIRVGAGGIMLPNHAPLVVAEQFGTLASLYPDRIDLGLGRAPGSDQMTARALRRERSGSAEDFPDDVTELMEYLGPRTPDQKVIAVPGSGTNVPIWLLGSSLFSAQLAGMRGLPYAFASHFAPRYMHEAIRVYRNHFQPSAVLDKPYVMLGVPLSAADTDEQAEYLATSVYQRILALMRGHSLMQRPPVDSMDGLWLPHEREAVASFLGLAMVGGPEKIRAKLDVLLEQTDADELIFTCDMYEHEDRLRSYEILAQ | failed |
| MYYVYVAGYILLAAAMQLFTGNFPVSFLAFPLNIIFAAIWLFLLWILYKEYNNLRITRFLGSSKASVLSISLFIGGCLIIGLFPQLSEPEAEMRKGISASLGCYNFMTSWIFISILLLLLSNLAMITIHACRHRKQARWRFILNHTGLWLALFAGFLGSSDTQTLRIPLYKGEPKHEAFDMNGASYYLDYDMELNSFAVEYYPNGRPSRFSANVRLGNENVLLEVNHPYSYRLGEDVYLTGYDVTKGNESNYCILQVVKQPWKYVMVAGILMMLAGAVLLFINGAKAYDKLG | failed |
| SEILRKFKILGRSKSPIFAFTVTAGLALTAVTGSATAVSIFRDSPSNKIATAVEGVVRSSRAIYSITLTVADYKYTLRRLPADSDEYLQRLTEVHSRSAKRILKLCESNKGFYVKAGQFVATLKLVPKEYSLALSSLQDKAVPCNFQEIKQVLTSNLGQNLTEIYLSFDEEPIAAASIAQVHHAVLKNHQEVAVKVQYPGLKQNMMLDTMIMSFLSKSVAKIFPEYRFDWLVYEFVKSISQELDFLQEAKNSERIAKNFKHNKMITIPTVFSEFTTTQVLTMQFCKGFKVDDVESLKRTNVSPEKVAKVLVEVFAEMIFVHGFIHGDPHPGNILVSPEGQNGFSLVLLDHGNCKTLDEAFRRDFCRLWEALILLDSNKIQELGKQFGVGKYAKFFPVIFTGRTSESGLIRSITLKLGAPQRVRLLAYAKYAVYGLGYKPTSEPDFVEKSVISRSVMLMSYLRLRLILELMELFQGMKKLKHTIYGFYGQLVGGITNSVKRITCSV | failed |
| MYKTQKNHIRCDKQTYRLLRQLCHFSKNLYNYALYHIRQHYFKTQEYLRYESVYHLVKESEDYRLLPSQVAQQTLISVIEAFKSFLGLLRAEKEGKVEERVSMPKYLPKDGMYQIVFPKDQFKTEGKKVRLSLGRGFAKEFGVKYLYFDLPATVLGKEIREVRIIPRFNGRWFEIEYVYEDKQQLGIFDLSRYLGVDLGLDNFAAVVDTIGTAFLIEGRFLKSVNRWYNKERARLQSIYSRQGIKCGRKLALVSRKRQHIIDNFLNQAVSLIIKHCLNNQISAVVVGEMKDIKQGIELGVVNNQNFVGIPYDKFKRKLKSKCMYYGIRYVEVDESYTSQRCSRCGHVSKSSRRYRGLYVCKKCGYVVNADINGAINIVAKVAGESVVKQITSSGCVNHPVRIRVA | failed |
| MFLVCGEALFDIFTRADDGGSLNRLGFDAIAGGSPFNVAIGLRRLGVEAAFFAGLSTDYLGRRLRAVLEQETVNAEHLIEFDAPTTLAMVAVGSDGSPTYSFRGDGCADRQLRLEHLPELDERVRGIHVGSFSLVVQPIADTLLALVARESARRLISLDPNVRLNPAPDIQRWRTQIAAFAEHAHLIKVSDEDLHLLYPDSDPQQIAEGWLGKRTQLVIVTRGTQGASVFTRQHGTWSVPAKTVVTADTVGAGDTFQAALLTFLSERQLDTPQGLSTLSRETLDEMLNFAVGAAALTCTKVGPDLPYRHQLG | failed |
| MSGFHYPGVPVTALLYSLWPLFALIVGGYALRRWDFPGEAFWPAAERLNYFILFPALLFSNLATAPLDDPGLARQALAVLLGLGVAWLALLLCKRWRGWDAGRFGAIAQGVLRFNTYLGLAAVGSLYGKPGLTLAALMLALMVPTVNVMSVWALTAERGISLRALLLPILKNPLILACLAGALVNLAGVGLPGGSDRLLNLLAVASLPLGLLCVGAALKPQELGGEVAALGWNCAARLLAMPLLAFAIARGLGLPSMESAVLVLFFALPTAPTAYVLTRQLGGDGHLMAGIITLQTLLSGATLVGVLLVLQGSP | failed |
| MRPALTTVQVFALLAVALSTLVFAASFAVDTTSARPEPVAFDNTVQRGVTAADEQIARNRSISIPRAQVFYSQYRYVVGYVGIGQAVTALTEPGHEQQFGYPLAVYVSDYSDRPVRCGDDGSLRTATPPDWVEANQAHYVVDGSARVPSGPAVVPFADRDDAAAFTETCGGQIIDWETLKTYSFDLKQAAAVREQVGPRRSGADATVQAARQHRNRPVSVEVGTDAPTVQAAVDAAPPNTTVVVPAGTYNEQVMIDKPLSLSGPGATLDGGGNGTVVTVTADRVGVTGFEITGIGNTTVGDPTQSNDSAWDATVTTAYGNSDAAVTGRNASGLYVANITVETPASGVVLRRTPGAVVENVTVNGTADWQDGFMGVIGMHRPIVVQDSVFNGGRDGVYLHRADGTAVRNNAFRDNRFGVHLMYTSRSLVADNVARGQEYAGVVVMTNPVANAIVGNDVRHSGSGIMLAGSRSYIAHNVVVDTTQAMSTNADRSLYEHNVLYGNDIGVRASTVVPSNIVTDNDFIANDRHAISGPGPLRVYTHDGRGNYWSGAYDLTGGTGPVLAQSYSPTDSVDRRLHQTDAAVVLRAAPSVRGLRALRGTTPGFRRGSIVDRAPLADPANPETVRRLRNETSMEGAA | failed |
| MFGGIENVKAAEPKVYQFDFGSGSMEPGYIGVRASDRYDRSKGYGFQTPENMRDVAASGAGVKSDAVEFLAYGTKSNNTFNVDLPNGLYEVKVTLGNTARASVAAEGVFQVINMTGDGAEDTFQIPVTDGQLNLLVTEGKAGTAFTLSALKIKKLSDQPVTNRTIYVGGDSTVCNYYPLNSSKQAGWGQMLPHYIDKHTFQVRNMASGGQIARGFRNDGQLEAILKYIKPGDYFMLQLGINDTNPKHKESEAEFKEVMRDMIRQVKAKGADVILSTPQGRATDFTSEGIHSSVNRWYRASILALAEEEKTYLIDLNVLSSAYFTSIGPERTLGLYMDGDTLHPNRAGADALARLAVQELKRQGIAGFLEHHHHHH | not failed |
| MRLVIHGKNIDITDGIRSYLNQKIERATSHFQNVINEVDVHLSVARNRSTAPKQTAEVTVFVNGSVIRAEESSENLYASIDLVADKIARKLRKLKEKRQDKSRAKDTNSVVEPEVVTDLVGDRTPQLPEQVVRMKYFAMPPMTIQEALEHLEMVDHDFYVFRNRDTGEINVVYERNHGGYGVIQPRPTSNNHHHNTADAAAKATAKAGPLEHHHHHH | not failed |
| MFFLRTTKRMESYSQNSNKLDFQHEARILNSIWLITALGLVATAGLAWGAKYLEITATKYDSPQMYVAIGLLLLSMYGLSKDINKINTAIAGVIYLFLISLVAIVVASLAPVSAIIVVFSTAGSMFLISMLAGLLFKFDPGSHRFIIMMTLTGLALVIIVNATLMSERPIWVISCLMIVLWSGIISHGRNKLLELTGKSHSEELWSSVRCAFIGALTLYYYFIGFFGILAAIAITLVWQRHTRFFH | failed |
| MSNYAAGLGKPGSGKRRIRDLLNQPDNRVCADCGASVPKWAKYQSIHLLKSCGVHRSLGTHILKVLSVTLDEWSDEEVDSMIETGGNASANSIYEAFVPDTCSKPGPDVNHDQRMRFIR | failed |
| MLTDAHCRAAKAKDKLYRINDARGLYLEVKPNGVRAWRYRFKLCGKASWFALGDYPDLSLANAREKCDEARKLVRQGINPVQNRQLTKIKREMDASNTFETIAQEWLALKSWEPVTKSRRLGMLKRVVFPSIGKLPVRTITSAHVLDILNKTVKRGAPTVAAEAKRTMSGVFELAVATLRADTDPVWPVRKALPPNKTQHKAALTSGQVGNLLNAFDSHGGHFQTQMAFRLMWLTLTRANESVQARWDEFDLANGLWKIPKERMKARREHLLPLPRQAVSILTTMQPITGQSTYVFPNRDDRHKPMSDAAFRQALKKLGWATIYSPHGTRTTGSTRLNEMGYRSDAIEAQLAHAEPNSVRRAYNHAIYMVERAEMMQHWADKLDLWKKEASDAAI | failed |
| MRGSVAALLLAAGRSIRMGRCKQLLPLGNTTVLGRCLDTLRRGGVGEIAVVVSADGEQVARAAAGHGVRVVVNPDREGDMASSVRAGRDAFGSAVGGVIVSLCDQPLVAAGTVARLRDRHATEPGRIIIPTHGGRRGHPLLFPLPVLAELEDGLTLRDLVVCDPARVCCVAVADPGILIDMDTPEDYRHVCRLMAPQEGLSLRLEHHHHHH | failed |
| MQLLKELCSIHAPSGNEEPLKDFILEYIRSNAGSWSYQPVIYADNDLQDCIVLVFGNPRTAVFAHMDSIGFTVSYNNHLHPIGSPSAKEGYRLVGKDSNGDIEGVLKIVDEEWMLETDRLIDRGTEVTFKPDFREEGDFILTPYLDDRLGVWTALELAKTLEHGIIAFTCWEEHGGGSVAYLARWIYETFHVKQSLICDITWVTEGVEAGKGVAISMRDRMIPRKKYVNRIIELARQTDIPFQLEVEGAGASDGRELQLSPYPWDWCFIGAPEKDAHTPNECVHKKDIESMVGLYKYLMEKL | not failed |
| MDFSQLGGLLDGMKKEFSQLEEKNKDTIHTSKSGGGMVSVSFNGLGELVDLQIDDSLLEDKEAMQIYLMSALNDGYKAVEENRKNLAFNMLGNFAKL | not failed |
| MKLIAIDLDGTLLNSKHQVSLENENALRQAQRDGIEVVVSTGRAHFDVMSIFEPLGIKTWVISANGAVIHDPEGRLYHHETIDKKRAYDILSWLESENYYYEVFTGSAIYTPQNGRELLDVELDRFRSANPEADLSVLKQAAEVQYSQSGFAYINSFQELFEADEPIDFYNILGFSFFKEKLEAGWKRYEHAEDLTLVSSAEHNFELSSRKASKGQALKRLAKQLNIPLEETAAVGDSLNDKSMLEAAGKGVAMGNAREDIKSIADAVTLTNDEHGVAHMMKHLL | not failed |
| MSKIAIIVDSSSYIPKDQLKKHHIYVIDNPIIFGETIYHEFNWPVNADFYQQMATTPIQPTTSQPAPGDFEAAFQAAKDDGYKQALVITLSSGFSGTFLNTSAIASSHSDIDIHVWDSRIACLGAGNQALLAAYLAEKGIGIDEILSKLQILRSRTGVFFVVDSISHLQRTGRLSGGQALVAGLLNIKPILNINTNKQGKIDAVAKTRKMSGAWRYIEKHFAKIADNYQRAGWPMRVSILDADNPELADAWLKRAEKRWPEIIFERGIIGPLVGVHIGGKAVGLIWAEDYKRLED | failed |
| MKRMHNPAHPGEVLREYLGELTVTNAAAKLGVSRVALSRILNGTNGISADMALRLEDALGTSAEMWAAMQFKYDLWVASQQPRPKITRLHV | failed |
